Target: T1, CD82 polypeptide (human) (human)
T1 sequence (P27701 whole entry, looked up): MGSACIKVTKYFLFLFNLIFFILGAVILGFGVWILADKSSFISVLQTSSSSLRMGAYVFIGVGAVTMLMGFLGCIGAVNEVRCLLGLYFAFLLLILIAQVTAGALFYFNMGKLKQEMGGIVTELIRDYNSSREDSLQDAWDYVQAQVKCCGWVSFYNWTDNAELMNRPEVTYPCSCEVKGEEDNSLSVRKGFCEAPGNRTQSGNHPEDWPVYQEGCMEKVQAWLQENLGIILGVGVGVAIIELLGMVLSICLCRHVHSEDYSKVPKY
Experiment: IP with anti CD82 antibodies, human myotubes, mass spectrometry

Chain of Annexin A2 (human) (P07355 2-339 limits assumed): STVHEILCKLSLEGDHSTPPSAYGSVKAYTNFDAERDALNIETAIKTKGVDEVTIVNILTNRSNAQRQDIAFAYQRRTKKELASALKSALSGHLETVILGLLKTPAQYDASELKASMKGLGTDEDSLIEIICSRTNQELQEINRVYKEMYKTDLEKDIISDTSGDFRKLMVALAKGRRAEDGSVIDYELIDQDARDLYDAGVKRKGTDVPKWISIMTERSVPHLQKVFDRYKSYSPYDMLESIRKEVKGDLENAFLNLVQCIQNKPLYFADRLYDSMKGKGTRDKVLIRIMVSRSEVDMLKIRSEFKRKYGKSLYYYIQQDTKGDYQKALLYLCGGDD

Row | Substance | Total | Unique
1 | Filamin C (from UniProt Q14315) | 24 | 24
2 | Filamin A (from UniProt P21333) | 30 | 30
3 | nonmuscle myosin IIA (from UniProt P35579) | 77 | 64
4 | Annexin A2 (human) (from UniProt P07355) | 5 | 5

Continued, values first:

Row | Total | Unique | Substance
5 | 3 | 3 | profilin (from UniProt P07737)
6 | 32 | 31 | Dysferlin (from UniProt O75923)
7 | 32 | 31 | Myoferlin (from UniProt Q9NZM1)
8 | 3 | 3 | Filamin B (from UniProt O75369)

Target: CD82 (mouse) (mouse) (UniProt P40237)
Experiment: IP with anti CD82 antibodies, mouse muscle tissue, mass spectrometry

Row | Total | Unique | Substance
9 | 2 | 2 | KV2A7_MOUSE
10 | 2 | 2 | G3P_MOUSE (from UniProt P16858) (enzyme)

Row | Substance | Total | Unique
11 | TBA1A_MOUSE (from UniProt P68369) | 3 | 3

Reference: patent US20220119489A1, “COMPOSITIONS AND METHODS FOR TREATING MUSCULAR DYSTROPHY AND RELATED DISORDERS” (CHILDREN'S MEDICAL CENTER CORPORATION, priority 2019, published 2022)
